Results reported in patent US20150258192A1, “COMPOSITIONS AND METHODS FOR PREVENTING OR TREATING CHRONIC LUNG ALLOGRAFT DYSFUNCTION (CLAD) AND IDIOPATHIC PULMONARY FIBROSIS (IPF)” (priority 2014, published 2015).

Target: MAPKAP-K2(h) (human) (UniProt P49137)
Test: cell-based or functional assay

MMI-0100 ([…]; SEQ ID NO: 1) (peptide)
IC50 (radiometric kinase activity assay): 22 µM
